B5: S100A4 (metastasin), wild type (natural protein)
chain: not shown

Settings in all cases: both partners purified
For assay [1], the target named is T1, Ezrin N-ERMAD (N-terminal ERM domain, FERM domain, Met1-Lys296) (human, UniProt P15311 1-296). As to the kind of experiment: fluorescence polarisation; direct FP; 50 nM fluorescent tracer (Fl-C-ERMAD variants or Fl-NMIIA) titrated with S100 proteins or N-ERMAD; 20 mM HEPES pH 7.5, 150 mM NaCl, 0.1 mM TCEP, 1 mM CaCl2, 0.05% Tween-20; triplicates; quadratic binding equation. For orientation: Fluorescence polarisation rises when a labelled molecule tumbles more slowly, as on binding a larger partner.

Assay [2] addresses B5. The description is as above.
The target in assay [3] is T1, Ezrin N-ERMAD (N-terminal ERM domain, …). As to the kind of experiment: circular dichroism; far-UV CD difference spectra of complexes; 10 mM Tris pH 7.5, 150 mM NaCl, 0.1 mM TCEP, 1 mM CaCl2; 15 μM N-ERMAD + 50 μM S100A4 dimer, 25 μM F2 lobe + 25 μM S100A4 dimer, 25 μM C-ERMAD + 100 μM S100A4 dimer or 30 μM N-ERMAD; BeStSel deconvolution. (In general: Circular dichroism is the unequal absorption of left and right circularly polarised light.)

Assay [4] concerns the target B5. As to the kind of experiment: fluorescence polarisation; competitive FP; 50 nM Fl-NMIIA complexed with 4 μM S100A4 dimer titrated with ezrin constructs; competition binding equation; triplicates.
The target of assay [5] is T1, Ezrin N-ERMAD (N-terminal ERM domain, …). As to the kind of experiment: other fluorescence titration; steady-state tryptophan fluorescence; 2 μM ezrin construct titrated with S100 protein; 20 mM HEPES pH 7.5, 150 mM NaCl, 0.5 mM TCEP, 1 mM CaCl2; 25°C; quadratic binding equation.
Assay [6] shares this target. Described as above. This is another data set of the same source.
Assay [7] has as its target T2, Ezrin F2 lobe of the N-ERMAD (Glu87-Glu199) (human, UniProt P15311 87-199). Described as above.
The target of assay [8] is T3, Full-length human ezrin (human, UniProt P15311 1-586). Described as above.
Assay [9] deals with T4, Full-length human ezrin, phosphomimicking mutant T567D (human, UniProt P15311 1-586, Thr567Asp). The description is as above.
Assay [10] deals with T1, Ezrin N-ERMAD (N-terminal ERM domain, …). As to the kind of experiment: fluorescence polarisation; competitive FP; 50 nM Fl-NMIIA complexed with 4 μM S100A4 dimer titrated with ezrin constructs; competition binding equation; triplicates.
For assay [11], the target named is T2, Ezrin F2 lobe of the N-ERMAD …. The description is as above.
Assay [12] addresses T3, Full-length human ezrin. The assay is described as above.
Assay [13] deals with T4, Full-length human ezrin, …. The assay is described as above.
Assay [14] addresses T1, Ezrin N-ERMAD (N-terminal ERM domain, …). Briefly: stopped-flow tryptophan fluorescence kinetics; 1 μM (post-mixing) N-ERMAD or F2 lobe mixed with S100A4 at different concentrations; 20 mM HEPES pH 7.5, 150 mM NaCl, 0.5 mM TCEP, 1 mM CaCl2; 25°C; Kd from amplitudes (quadratic), K1, k2, k-2 from hyperbola of kobs (induced fit).
The target of assay [15] is T2, Ezrin F2 lobe of the N-ERMAD …. Described as above.
Assay [16] has the same target. As to the kind of experiment: other fluorescence titration; steady-state tryptophan fluorescence; 2 μM ezrin construct titrated with S100 protein; 20 mM HEPES pH 7.5, 150 mM NaCl, 0.5 mM TCEP, 1 mM CaCl2; 25°C; quadratic binding equation. The source holds these as a separate data set.

Broadly, the Kd is the concentration at which binding is half-saturated. A lower Kd goes with tighter binding. One may read the stoichiometry N as a count of units in the complex or per binding partner.

B1: Fl-C-ERMAD^T567D (fluorescently labeled phosphomimetic C-ERMAD mutant) (domain or fragment, human)
chain: CKRITEAEKNERVQRQLLTLSSELSQARDENKRTHNDIIHNENMRQGRDKYKDLRQIRQGNTKQRIDEFEAL
modifications: fluorescent label on the N-terminal cysteine (Alexa Fluor 568 C5 maleimide by the methods for the C-ERMAD fragments)
notes: cysteine cloned before Lys516, carries the fluorescent label (as for the C-ERMAD); human ezrin C-ERMAD with Thr567Asp; limits are those printed for the parent C-ERMAD (Lys516-Leu586); source: E. coli Rosetta(DE3), purified, fluorescently labeled; not shown: GST, N-terminal, cleaved
With B1, the binding result in [1] is given as “binds”. This molecule displayed a Kd in assay [2] of 2700 nM.

B2: Ezrin C-ERMAD (Cys-Lys516-Leu586), unlabeled (domain or fragment, human)
chain: CKRITEAEKNERVQRQLLTLSSELSQARDENKRTHNDIIHNENMRQGRDKYKTLRQIRQGNTKQRIDEFEAL
notes: cysteine cloned before Lys516 for fluorescent labeling; human ezrin C-ERMAD, Lys516-Leu586; also called unlabeled C-ERMAD; not shown: GST, N-terminal, cleaved
Turning to B2, the binding result in assay [3] was “binds”. Further, the Kd in [4] is 5300 nM.

B3: Fl-C-ERMAD (fluorescently labeled ezrin C-ERMAD, Cys-Lys516-Leu586) (domain or fragment, human)
chain: CKRITEAEKNERVQRQLLTLSSELSQARDENKRTHNDIIHNENMRQGRDKYKTLRQIRQGNTKQRIDEFEAL
modifications: Alexa Fluor 568 C5 maleimide on the N-terminal cysteine (the same paragraph also calls the peptides fluorescein-conjugated)
notes: cysteine cloned before Lys516, carries the fluorescent label; human ezrin C-ERMAD, Lys516-Leu586; also called fluorescently-labeled C-ERMAD; not shown: GST, N-terminal, cleaved
With B3, the Kd in assay [1] is 8.6 ± 0.7 nM; in assay [2], 3400 nM.

B4: S100P (natural protein, UniProt P25815 1-95, looked up)
chain: MTELETAMGMIIDVFSRYSGSEGSTQTLTKGELKVLMEKELPGFLQSGKDKDAVDKLLKDLDANGDAQVDFSEFIVFVAAITSACHKYFEKAGLK
Consider B4, for which the dissociation constant Kd in assay [5] was 1700 ± 300 nM.
In the case of B5, the Kd in assay [6] is 2200 nM; in assay [7], less than 100 nM; with Full-length human ezrin [8], 175000 nM; in assay [9] it was 158000 nM; in assay [10], 1100 nM; in assay [11], 120 nM. Besides, the dissociation constant (Kd) in the assay with Full-length human ezrin [12] came to 92100 nM; in assay [13] it was 72200 nM; in [14] it was 3900 nM; in assay [15], 170 nM. The “stoichiometry N” value in [16] is 1 S100A4 dimer per F2 lobe.
